Experimental data published in patent US20240026011A1 (published 2024).
Substitutions are numbered along the chain they refer to. One block for each binder: values may come before it.

What was measured:
cyno HER2 on cells = cyno HER2 on cells (cynomolgus monkey, UniProt A0A2K5WUT7 1-1225); assay: kinetic affinity (kon/koff); Pro51 format
human CA9 on cells = human CA9 on cells (human, UniProt Q16790 38-459); assay: affinity; Pro51 format
cyno CA9 on cells = cyno CA9 on cells (cyno, UniProt A0A2K5VQG9 38-447); assay: affinity; Pro51 format
human HER2 on cells = human HER2 on cells (human, UniProt P04626 23-1255); assay: kinetic affinity (kon/koff); Pro51 format

Chain of cyno CA9 on cells (A0A2K5VQG9 entry or part of it): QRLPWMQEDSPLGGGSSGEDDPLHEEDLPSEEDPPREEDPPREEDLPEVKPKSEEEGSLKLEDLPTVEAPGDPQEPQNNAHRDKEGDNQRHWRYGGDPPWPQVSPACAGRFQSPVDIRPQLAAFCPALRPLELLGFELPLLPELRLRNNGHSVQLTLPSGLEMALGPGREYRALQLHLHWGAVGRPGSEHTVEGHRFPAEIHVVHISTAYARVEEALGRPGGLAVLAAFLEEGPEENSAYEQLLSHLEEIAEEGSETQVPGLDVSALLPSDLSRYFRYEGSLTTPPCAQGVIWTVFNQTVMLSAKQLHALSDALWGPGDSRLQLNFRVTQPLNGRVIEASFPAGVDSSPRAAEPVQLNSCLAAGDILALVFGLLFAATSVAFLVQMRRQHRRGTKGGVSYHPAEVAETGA

Kd (cyno HER2 on cells): 21.8 nM
B1: humanized aHER2 sdAb h1162 (VHH)
VHH: QVQLLESGGGLVQPGGSLRLSCAASGRPFSGNAMGWFRQAPGKEREFVAAISWSGDSTYYADSVKGRFTISRDNSKNTLYLQMNSLRAEDTAVYYCAATRSFYSRTYYTRPSDYNYWGPGTLVTVSS

Kd (cyno HER2 on cells): 21.2 nM
B2: Pro1047 VIB1162 (bispecific antibody, V domains shown)
VH: B1 VHH with L5Q, P14A, S75D, K76E, L79A, R87K, A88P, L122Q

Kd (human CA9 on cells): 3.1 nM
Kd (cyno CA9 on cells): 4.9 nM
B4: h445 (Pro512) (antibody, V domains shown)
VH: QVQLVESGGGLVKPGGSLRLSCAASGITFNLHAMRWYRRAPGKQRELVAYISARDWTNYADSVKGRFTISRDNAKNSLYLQMNSLRAEDTAVYYCNTDLVGEDYWGRGTLVTVSS

Kd (cyno HER2 on cells): 17 nM
B8: Pro1045 VIB1159 (bispecific antibody, V domains shown)
VH: QVQLQESGGGLVQAGGSLRLSCATSGRTFSSLAMGWFRQAPGKERELVAGISWSGSTTYYADSVKGRFAISRDNAKNTVYLQMNSLKPEDTAVYYCAARTSSIATIGREYDYWGQGTQVTVSS

Kd (cyno HER2 on cells): 37 nM
B9: h1159 (Pro1062) (antibody, V domains shown)
VH: B8 VH with Q5L, A14P, A75S, V79L, K87R, P88A, Q118L

Kd (cyno HER2 on cells): 9 nM
B14: Pro1044 VIB1156 (bispecific antibody, V domains shown)
VH: QVQLQESGGGLVQAGGSLKVSCAASRNIGSNYAVGWFRQAPGKEREPVAALRWTGSIIGYDDSLRGRFTISKDDAKNTVYLQMNSLKPEDTGVYYCAARILDRSSYDYWGQGTQVTVSS

Kd (human CA9 on cells): 0.7 nM
Kd (cyno CA9 on cells): 1.1 nM
B15: h456 (Pro509) (antibody, V domains shown)
VH: QVQLVESGGGLVQPGGSLRLSCAASGSALIINAMGWYRQAPGKQRELVATVTRSGRTNYADSVKGRFTISRDNSKNTLYLQMNSLRAEDTAVYYCNVALWIADGEYDYWGQGTLVTVSS

Kd (human CA9 on cells): 1.6 nM
Kd (cyno CA9 on cells): 1.2 nM
B16: h476 (Pro510) (antibody, V domains shown)
VH: QVQLVESGGGLVQPGGSLRLSCAASGNIFIINVMGWYRQAPGKQRELVATITNGGRTHYADSVKGRFTISRDNSKNTLYLQMNSLRAEDTAVYYCNANHIELGDYWGQGTLVTVSS

Kd (cyno HER2 on cells): 7.4 nM
B18: h1139 (Pro1060) (protein)
chain: QVQLVESGGGVVRPGGSLRLSCAASGFTFDDYAMSWIRQAPGKEMEWVSGINWSGTHTRYADSVKGRFTISRDNAKNSLYLQMNSLRAEDTALYYCARGFAADSRSTRGQGTLVTVSS

Second part, the binder before the results:

B3: 1160 (Pro1046) (antibody, V domains shown)
VH: QVQLQESGGGLVQAGGSLRLSCAASGRTFSNERLGWFRQAPGKERELVAAIRWSGVIIGYADSVRGRFTISRDNAKSTVYLQMNSLRPEDTAVYFCAADRGVYGTWDYWGQGTQVTVSS
Kd (cyno HER2 on cells): 10.8 nM

B5: 1058 (Pro1037) (protein)
chain: QVQLQESGGGLVQPGGSLRLTCAASGRAISSYAISWFRQAPGEEREFVAAINWSGTHTNYADSVKGRFTISRDNVKNTVYLQMNSLKPEDTATYFCSRGWSVFDPDYRGQGTQVTVSS
Kd (human HER2 on cells): 8.6 nM
Kd (cyno HER2 on cells): 9.7 nM

B6: Pro1036 VIB1055 (bispecific antibody, V domains shown)
VH: B5 chain with A23E, A24V
Kd (cyno HER2 on cells): 69.9 nM

B7: Pro1038 VIB1059 (bispecific antibody, V domains shown)
VH: B5 chain with N59D, V75A, T93V
Kd (cyno HER2 on cells): 85 nM

B10: 1091 (Pro1039) (protein)
chain: QVQLQESGGGLVQPGGSLRLSCAASGFTFDDYAMSWVRQAPGKGLEWVSSINWSGTHTDYADSVKGRFTISRDNAKNTLYLQMNSLKSEDSAVYYCVKGWRLTGGYYDSVQGQGTQVTVSS
Kd (cyno HER2 on cells): 8.5 nM

B11: 1097 (Pro1041) (protein)
chain: B10 chain with T28I, S35T, L102H, G104D, G105N, D108A, S109G
Kd (cyno HER2 on cells): 4.3 nM

B12: 1092 (Pro1040) (protein)
chain: B10 chain with P14A, G16A, M34L
Kd (cyno HER2 on cells): 4.5 nM

B13: 1121 (Pro1042) (protein)
chain: QVQLQESGGGLVQAGGSLRLSCAASGFIFSDYAMTWVRQAPGKGLEWVSSINWSGTHTNYADSVKGRFTISRDNAKKTLYLQMNSLKSEDTAVYYCARGWMVVPDSTRGQGTQVTVSS
Kd (cyno HER2 on cells): 4.6 nM

B17: Pro1043 VIB1139 (bispecific antibody, V domains shown)
VH: B18 chain with V5Q, V11L, R13Q, S78T, Y80D, R87I, A88S, L93V, L113Q
Kd (cyno HER2 on cells): 6.7 nM
